Tests used:
[1] = test system: J32/FcγRIIA and J32-3.2/FcγRIIA T-cell transfectants; test: inhibition of sEA phagocytosis in FcγRIIA T-cell transfectants; assay type: cell-based; settings: preincubation of the cells in 10 μg/ml
Method: The ability of these T-cell transfectants to phagocytose IgG-sensitized cells was assessed by incubation with IgG coated sheep erythrocytes (sEA). In both the wild type J32 and mutant J32-3.2 transfectants, a number of the cells were able to phagocytose the sEA (FIG. 12).
Considering that 70%-100% of the cells are expressing FcγRIIA in these transfectants, and presumably are mediating phagocytosis through this receptor, the levels of phagocytosis observed are relatively low when compared, for example, to COS-1 fibroblasts transfected with FcγRIIA (Indik et al, J. Clin. Invest. 88:1766 (1991)). […] Also phagocytosis was inhibited when the transfectants were incubated with sEA at 0° C. instead of 37° C.

[2] = test system: murine macrophages (P388D1); test: phagocytosis by WT FcγRI transfected into murine macrophages; assay type: cell-based
Method: Wild type (WT) and a mutant (MT) FcγRI, engineered to omit the cytoplasmic domain (CYT), were transfected into COS cells and murine macrophages (P388D1). The phagocytic potential of the transformed cells was assessed using IgG-coated RBCs (EA) and RBCs conjugated with Fab anti-human FcγR1 mAb (E-mAb). […] However, both WT and MT FcγRI induced phagocytosis in P388D1. Phagocytosis by WT FcγRI was inhibited by the tyrosine kinase inhibitor tyrphostin 23. Furthermore, activation of FcγRI on monocytes with Fab anti-FcγRI induced tyrosine phosphorylation of FcγRII, determined by anti-phosphotyrosine immunoblots. FcγR1 thus mediates a Ca^2+ signal through its cytoplasmic domain but not phagocytosis. FcγRI induced phagocytosis therefore requires elements, present in macrophages but absent in COS cells, that permit transmembrane communication.

COS-1 cells = test: phagocytosis of IgG-coated cells (EA) by FcγRIIIA-transfected COS-1 cells, electron microscopy; assay type: cell-based; settings: COS-1 transfectants
From the text: A FcγRIIIA encoding sequence was transfected into COS-1 cells to study its phagocytic function, determined by electron microscopy, in the absence of other Fc receptors. […] To delineate the region of the γ chain important in phagocytosis, two deletion mutants, were constructed, deleting the C-terminal 7 amino acids or deleting the C-terminal 22 amino acids which have a tyrosine containing conserved motif, Y-X2-L-X7-Y-X2-L (SEQ ID NO:10), present in several Ig gene super family receptors. […] The role of the conserved cytoplasmic tyrosines was then examined.
Further, single chain Fcγ receptor chimeras, consisting of the γ cytoplasmic domain and the a extracellular domain with the transmembrane domain of either FcγRIIIA-γ or FcγRI were able to mediate a phagocytic signal. However, single chain chimeras were not sufficient for full phagocytic activity.

FcγRII = settings: cited from earlier work
FcγRIIA [3] = target: FcγRIIA (UniProt P12318); test: cell-based or functional assay
FcγRIIA [4] = target: FcγRIIA (UniProt P12318)
[5] = target: γ chain (γ subunit of FcγRI and FcγRIIIA); test: cell-based or functional assay
FcγRI and FcγRII = settings: cited from earlier work
[6] = test system: splenic macrophage Fcγ receptors; settings: in vivo; cited from earlier work
[7] = test system: IgG sensitized 51Cr-guinea pig RBC (EA); test: splenic macrophage clearance of IgG sensitized 51Cr-guinea pig RBC (EA), established guinea pig model; assay type: in vivo
Method: (§1) Human recombinant macrophage colony stimulating factor (hrM-CSF) was studied in vivo using an established model in the guinea pig (Schreiber et al, J. Clin. Invest. 51:575 (1972)). Adult male guinea pigs were treated for 5 days with hrM-CSF (500 μg/kg) and splenic macrophage FcγR function and protein expression were assessed by i) the splenic macrophage clearance of IgG sensitized ^51Cr-guinea pig RBC (EA), ii) the in vitro binding of EA by isolated splenic macrophage, and iii) FACS analysis using monoclonal antibodies with specificity for the two guinea pig splenic macrophage Fcγ receptors, FcγR1,2 and FcγR2. Treatment with hrM-CSF enchanced the clearance of EA by 72±5%. In addition, a greater proportion of isolated splenic macrophages from hrM-CSF treated animals bound EA in vitro: 80±7% vs 48±4% (sham), p<0.001. In vivo hrM-CSF increased the expression of both splenic macrophages Fcγ receptors: 81±6% and 130±10% for FcγR1,2 and FcγR2, respectively. The lowest effective dose of hrM-CSF was 250 μg/kg, increasing the expression of FcγR1,2 by 26±3% and FcγR2 by 42±4%. […] The effect of hrM-CSF required at least 4 days of treatment.

splenic macrophage = test: in vitro binding of EA by isolated splenic macrophages from treated animals; assay type: in vivo, guinea pig; settings: animals treated 500 μg/kg for 5 days; sham 48±4%, p<0.001
Method: as §1

FcγR1,2 = test: FACS analysis of splenic macrophage Fcγ receptor expression with monoclonal antibodies; assay type: in vivo, guinea pig
Method: as §1

FcγR2 = test: as above; assay type: in vivo, guinea pig
Method: as §1

**Q.** With `C=C1[C@@H](C)[C@H]2[C@H](Cc3ccccc3)NC(=O)[C@]23[C@H](OC(C)=O)/C=C/[C@@](C)(O)C(=O)[C@@H](C)C/C=C/[C@H]3[C@@H]1O` [cytochalasin-D] as the molecule, how does the “effect on phagocytosis of sEA” value [1] read?
**A.** abolished phagocytosis

**Q.** Which “effect on phagocytosis by WT FcγRI” value [2] does the source give for `N#CC(C#N)=Cc1ccc(O)c(O)c1` [tyrphostin 23] here?
**A.** inhibited

**Q.** What about the “effect on FcγRIIIA phagocytosis” value (COS-1 cells) of the same molecule?
**A.** reversibly inhibited phagocytosis

**Q.** With “GM-CSF: hematopoietic growth factor, granulocyte-macrophage colony-stimulating factor” as the molecule, how does the “effect on monocyte FcγRII expression and function” value (FcγRII) read?
**A.** selectively increase monocyte FcγRII expression and function

**Q.** Which % phagocytic cells, J32-3.2/FcγRIIA bulk transfectants, experiment 2 (FcγRIIA [3]) does the source give for “IgG on IgG-sensitized sheep red blood cells (EA) (antibody)” here?
**A.** 5%

**Q.** What about the % phagocytic cells, J32-3.2/FcγRIIA bulk transfectants, experiment 3 (FcγRIIA [3]) of the same molecule?
**A.** 13%

**Q.** And the % phagocytic cells, J32-3.2/FcγRIIA bulk transfectants, experiment 4 (FcγRIIA [3])?
**A.** 17%

**Q.** And the % phagocytic cells, J32-3.2/FcγRIIA bulk transfectants, experiment 6 (FcγRIIA [3])?
**A.** 6%

**Q.** What about the % phagocytic cells, J32/FcγRIIA bulk transfectants, experiment 1 (FcγRIIA [3]) of the same molecule?
**A.** 17%

**Q.** And the % phagocytic cells, J32/FcγRIIA bulk transfectants, experiment 2 (FcγRIIA [3])?
**A.** 33%

**Q.** And the % phagocytic cells, J32/FcγRIIA bulk transfectants, experiment 3 (FcγRIIA [3])?
**A.** 25%

**Q.** What about the % phagocytic cells, J32/FcγRIIA bulk transfectants, experiment 4 (FcγRIIA [3]) of the same molecule?
**A.** 32%

**Q.** And the % phagocytic cells, J32/FcγRIIA bulk transfectants, experiment 5 (FcγRIIA [3])?
**A.** 31%

**Q.** What about the % phagocytic cells, J32/FcγRIIA bulk transfectants, experiment 6 (FcγRIIA [3]) of the same molecule?
**A.** 14%

**Q.** And the corrected phagocytic index (cP1), J32-3.2/FcγRIIA bulk transfectants, experiment 2 (erythrocytes ingested per 100 cells) (FcγRIIA [3])?
**A.** 7

**Q.** And the corrected phagocytic index (cP1), J32-3.2/FcγRIIA bulk transfectants, experiment 3 (erythrocytes ingested per 100 cells) (FcγRIIA [3])?
**A.** 21

**Q.** What about the corrected phagocytic index (cP1), J32-3.2/FcγRIIA bulk transfectants, experiment 4 (erythrocytes ingested per 100 cells) (FcγRIIA [3]) of the same molecule?
**A.** 24

**Q.** And the corrected phagocytic index (cP1), J32-3.2/FcγRIIA bulk transfectants, experiment 6 (erythrocytes ingested per 100 cells) (FcγRIIA [3])?
**A.** 9

**Q.** And the percent of cells that phagocytosed EA, FcγRIIA-infected D58 (Src+) cells (FcγRIIA [3])?
**A.** 70 percent

**Q.** And the percent of cells that phagocytosed EA, FcγRIIA-infected SAR6 (Src-) cells (FcγRIIA [3])?
**A.** 43 percent

**Q.** And the phagocytic index (P1), J32-3.2/FcγRIIA bulk transfectants, experiment 2 (erythrocytes ingested per 100 cells) (FcγRIIA [3])?
**A.** 6

**Q.** And the phagocytic index (P1), J32-3.2/FcγRIIA bulk transfectants, experiment 3 (erythrocytes ingested per 100 cells) (FcγRIIA [3])?
**A.** 18

**Q.** And the phagocytic index (P1), J32-3.2/FcγRIIA bulk transfectants, experiment 4 (erythrocytes ingested per 100 cells) (FcγRIIA [3])?
**A.** 21

**Q.** What about the phagocytic index (P1), J32-3.2/FcγRIIA bulk transfectants, experiment 6 (erythrocytes ingested per 100 cells) (FcγRIIA [3]) of the same molecule?
**A.** 8

**Q.** What about the phagocytic index (P1), J32/FcγRIIA bulk transfectants, experiment 1 (erythrocytes ingested per 100 cells) (FcγRIIA [3]) of the same molecule?
**A.** 28

**Q.** What about the phagocytic index (P1), J32/FcγRIIA bulk transfectants, experiment 2 (erythrocytes ingested per 100 cells) (FcγRIIA [3]) of the same molecule?
**A.** 22

**Q.** What about the phagocytic index (P1), J32/FcγRIIA bulk transfectants, experiment 3 (erythrocytes ingested per 100 cells) (FcγRIIA [3]) of the same molecule?
**A.** 40

**Q.** And the phagocytic index (P1), J32/FcγRIIA bulk transfectants, experiment 4 (erythrocytes ingested per 100 cells) (FcγRIIA [3])?
**A.** 53

**Q.** And the phagocytic index (P1), J32/FcγRIIA bulk transfectants, experiment 5 (erythrocytes ingested per 100 cells) (FcγRIIA [3])?
**A.** 51

**Q.** And the phagocytic index (P1), J32/FcγRIIA bulk transfectants, experiment 6 (erythrocytes ingested per 100 cells) (FcγRIIA [3])?
**A.** 21

**Q.** With Src as the molecule, how does the “in vitro immune complex kinase assay: phosphorylation of FcγRIIA” value (FcγRIIA [4]) read?
**A.** FcγRIIA was phosphorylated by Src in this in vitro assay

**Q.** Which enhancement of phagocytosis mediated by FcγRI/γ on co-transfection of Syk in COS-1 cells [5] does the source give for Syk (enzyme) here?
**A.** 8 fold

**Q.** What about the enhancement of phagocytosis mediated by FcγRIIIA/γ on co-transfection of Syk in COS-1 cells [5] of the same molecule?
**A.** 6.1 fold

B1: IFN-γ: the cytokine interferon gamma (protein, UniProt P01579 24-161, looked up)
Interferon gamma: QDPYVKEAENLKKYFNAGHSDVADNGTLFLGILKNWKEESDRKIMQSQIVSFYFKLFKNFKDDQSIQKSVETIKEDMNVKFFNSNKKKRDDFEKLTNYSVTDLNVQRKAIHELIQVMAELSPAAKTGKRKRSQMLFRG
**Q.** Which “effect on levels of FcγRI and FcγRII” value (FcγRI and FcγRII) does the source give for B1 here?
**A.** modulate the levels of FcγRI and FcγRII

B2: M-CSF: hematopoietic growth factor, macrophage colony stimulating factor (protein, UniProt P09603 33-554, looked up)
Macrophage colony-stimulating …: EEVSEYCSHMIGSGHLQSLQRLIDSQMETSCQITFEFVDQEQLKDPVCYLKKAFLLVQDIMEDTMRFRDNTPNAIAIVQLQELSLRLKSCFTKDYEEHDKACVRTFYETPLQLLEKVKNVFNETKNLLDKDWNIFSKNCNNSFAECSSQDVVTKPDCNCLYPKAIPSSDPASVSPHQPLAPSMAPVAGLTWEDSEGTEGSSLLPGEQPLHTVDPGSAKQRPPRSTCQSFEPPETPVVKDSTIGGSPQPRPSVGAFNPGMEDILDSAMGTNWVPEEASGEASEIPVPQGTELSPSRPGGGSMQTEPARPSNFLSASSPLPASAKGQQPADVTGTALPRVGPVRPTGQDWNHTPQKTDHPSALLRDPPEPGSPRISSLRPQGLSNPSTLSAQPQLSRSHSSGSVLPLGELEGRRSTRDRRSPAEPEGGPASEGAARPLPRFNSVPLTDTGHERQSEGSFSPQLQESVFHLLVPSVILVLLAVGGLLFYRWRRRSHQEPQRADSPLEQPEGSPLTQDDRQVELPV
**Q.** For B2, which “effect on splenic macrophage Fcγ receptors” value [6] is on record?
**A.** increase splenic macrophage Fcγ receptors

B3: hrM-CSF: Human recombinant macrophage colony stimulating factor (protein, UniProt P09603 33-554, looked up)
Macrophage colony-stimulating …: EEVSEYCSHMIGSGHLQSLQRLIDSQMETSCQITFEFVDQEQLKDPVCYLKKAFLLVQDIMEDTMRFRDNTPNAIAIVQLQELSLRLKSCFTKDYEEHDKACVRTFYETPLQLLEKVKNVFNETKNLLDKDWNIFSKNCNNSFAECSSQDVVTKPDCNCLYPKAIPSSDPASVSPHQPLAPSMAPVAGLTWEDSEGTEGSSLLPGEQPLHTVDPGSAKQRPPRSTCQSFEPPETPVVKDSTIGGSPQPRPSVGAFNPGMEDILDSAMGTNWVPEEASGEASEIPVPQGTELSPSRPGGGSMQTEPARPSNFLSASSPLPASAKGQQPADVTGTALPRVGPVRPTGQDWNHTPQKTDHPSALLRDPPEPGSPRISSLRPQGLSNPSTLSAQPQLSRSHSSGSVLPLGELEGRRSTRDRRSPAEPEGGPASEGAARPLPRFNSVPLTDTGHERQSEGSFSPQLQESVFHLLVPSVILVLLAVGGLLFYRWRRRSHQEPQRADSPLEQPEGSPLTQDDRQVELPV
**Q.** Which “enhancement of the clearance of EA” value ([7]; adult male guinea pigs, 500 μg/kg for 5 days) does the source give for B3 here?
**A.** 72±5%

**Q.** And the “days of treatment required for the effect” value ([7]; guinea pig)?
**A.** at least 4 days

**Q.** And the lowest effective dose ([7]; guinea pig)?
**A.** 0.25 mg/kg

**Q.** What about the “proportion of isolated splenic macrophages that bound EA in vitro” value (splenic macrophage) of the same molecule?
**A.** 80±7%

**Q.** What about the “increase in expression of FcγR1,2” value (FcγR1,2; 250 μg/kg) of the same molecule?
**A.** 26±3%

**Q.** And the “increase in expression of splenic macrophage FcγR1,2” value (FcγR1,2; 500 μg/kg for 5 days)?
**A.** 81±6%

**Q.** What about the “increase in expression of FcγR2” value (FcγR2; 250 μg/kg) of the same molecule?
**A.** 42±4%

**Q.** What about the “increase in expression of splenic macrophage FcγR2” value (FcγR2; 500 μg/kg for 5 days) of the same molecule?
**A.** 130±10%
